Test results from patent US20200148732A1 (UNIVERSITY OF COPENHAGEN, published 2020).
Changes are numbered by the printed parent chain. Where no end group is shown, it is not given here.

T1: TONSL acidic stretch and ARD (aa. 450-692) (human, UniProt Q96HA7 450-692)
T1 sequence: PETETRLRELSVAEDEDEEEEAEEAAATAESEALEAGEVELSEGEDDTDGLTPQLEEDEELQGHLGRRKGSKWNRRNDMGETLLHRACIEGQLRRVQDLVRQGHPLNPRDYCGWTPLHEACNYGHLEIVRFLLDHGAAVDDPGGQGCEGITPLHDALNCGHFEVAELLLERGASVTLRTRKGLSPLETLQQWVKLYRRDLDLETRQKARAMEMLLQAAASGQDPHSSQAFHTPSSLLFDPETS

T2: TONSL Ankyrin Repeat Domain (ARD, residues 512-692), purified recombinant (human, UniProt Q96HA7 512-692)
T2 construct: Expressed as a GST fusion in E. coli; Used in ITC, peptide pull-down and native MS; also called TONSL ARD; TONSL-ARD
T2 sequence: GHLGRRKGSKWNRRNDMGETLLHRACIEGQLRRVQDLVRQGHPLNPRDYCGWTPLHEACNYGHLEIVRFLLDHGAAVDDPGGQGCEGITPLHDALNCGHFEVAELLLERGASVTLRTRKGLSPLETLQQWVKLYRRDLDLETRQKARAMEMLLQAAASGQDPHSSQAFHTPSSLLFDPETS

B1: histone H4 (residues 9-25) peptide, unmodified (peptide)
peptide: GLGKGGAKRHRKVLRDN
notes: Synthesised at Tufts University Core Facility; also called H4 (9-25); H4 tail (9-25)
B2: histone H4 (residues 9-25) peptide H18W (peptide)
peptide: GLGKGGAKRWRKVLRDN
notes: His18 mutated to Trp18
B3: Lys-Gly-Gly-Ala-Lys-Arg-His-Arg-Lys-Val-Leu-Arg-NH2, Example 13 (peptide)
peptide: KGGAKRHRKVLR-NH2
B4: Lys-Gly-Gly-Ala-Lys-Arg-His-Ala-Lys-Val-Leu-Arg-NH2, Example 14 (peptide)
peptide: KGGAKRHAKVLR-NH2
notes: H4 12-23 with Arg19 replaced by Ala
B5: Lys-Gly-Gly-Ala-Ala-Arg-His-Arg-Lys-Val-Leu-Arg-NH2, Example 15 (peptide)
peptide: KGGAARHRKVLR-NH2
notes: H4 12-23 with Lys16 replaced by Ala
B6: Ala-Lys-Arg-His-Arg-Lys-Val-Leu-Arg-NH2, Example 12 (peptide)
peptide: AKRHRKVLR-NH2
B7: Leu-Gly-Lys-Gly-Gly-Ala-Lys-Arg-His-Arg-Lys-Val-Leu-Arg-Asp-Asn-Ile-NH2 (Histone H4 peptide), Example 11 (peptide)
peptide: LGKGGAKRHRKVLRDNI
modifications: C-terminal amide (-NH2)
notes: Bought from JPT Peptide Technologies
B8: GST-TONSL ARD D559A (other)
chain: T2 sequence with D48A
notes: not shown: GST tag of the pGEX-6P-1 vector
B9: GST-TONSL ARD E568A (other)
chain: T2 sequence with E57A
notes: as for B8
B10: GST-TONSL ARD N571A (other)
chain: T2 sequence with N60A
notes: as for B8
B11: GST-TONSL ARD W563A (other)
chain: T2 sequence with W52A
notes: as for B8
B12: GST-TONSL ARD E530A (other)
chain: T2 sequence with E19A
notes: as for B8
B13: GST-TONSL ARD D604A (other)
chain: T2 sequence with D93A
notes: as for B8

How the values were obtained:
[1] = molecular target: T1, TONSL acidic stretch and ARD (aa. …); test: ITC, peptide injected into TONSL (450-692); the value stands without a heading in the legend box, in the column where the other peptide has NB
[2] = molecular target: T2, TONSL Ankyrin Repeat Domain (ARD, …); test: ITC, peptide injected into TONSL ARD
[3] = molecular target: T2, TONSL Ankyrin Repeat Domain (ARD, …); test: native MS, apparent Kd
[4] = molecular target: T2, TONSL Ankyrin Repeat Domain (ARD, …); test: native MS, titration Kd (constant peptide to protein ratio, decreasing protein concentration)
Method: (§1) The mass spectrometry (MS) analysis were carried out on an electrospray time-of-flight mass spectrometer (LCT, Waters, Manchester, UK) equipped with an automated chip-based nanoESI device (Triversa Nanomate, Advion Biosciences, Ithaca, N.Y.). External calibration was done in the positive ion mode over the mass range m/z 200-6000 using the multiply charged ions produced by 0.4 μM horse heart myoglobin solution diluted in water/acetonitrile 50/50 mixture acidified with 0.5% (v/v) formic acid. […] […] Incubations were performed at room temperature for 15 min. Mass spectra were recorded using reduced cone voltage (Vc=50 V) and elevated interface pressure (Pi=5 mbar) which correspond to fine-tuned instrumental settings providing sufficient ion desolvation while preserving the integrity of weak non-covalent complexes in the gas phase. Micromass MassLynx 4.1 was used for data acquisition and processing.
(§2) This protein proportion is used to calculate the bound protein, the free protein and the free peptide concentrations. The Kd is calculated by using the following equation for each protein/peptide concentration. The final Kd for each peptide is the average of the Kd at different protein/peptide ratio.

[5] = molecular target: T2, TONSL Ankyrin Repeat Domain (ARD, …); test: native MS, abundance of the 1:1 protein-peptide complex, 10 µM TONSL ARD
Method: The mass spectrometry (MS) analysis were carried out on an electrospray time-of-flight mass spectrometer (LCT, Waters, Manchester, UK) equipped with an automated chip-based nanoESI device (Triversa Nanomate, Advion Biosciences, Ithaca, N.Y.). External calibration was done in the positive ion mode over the mass range m/z 200-6000 using the multiply charged ions produced by 0.4 μM horse heart myoglobin solution diluted in water/acetonitrile 50/50 mixture acidified with 0.5% (v/v) formic acid. […] The protein concentration was set to 10 μM and different peptide concentrations ranging from 1 to 5 molar equivalents were added. Incubations were performed at room temperature for 15 min. Mass spectra were recorded using reduced cone voltage (Vc=50 V) and elevated interface pressure (Pi=5 mbar) which correspond to fine-tuned instrumental settings providing sufficient ion desolvation while preserving the integrity of weak non-covalent complexes in the gas phase. Micromass MassLynx 4.1 was used for data acquisition and processing.
The proportion of 1:1 stoichiometry complex is calculated according to the following equation: […]

[6] = molecular target: T2, TONSL Ankyrin Repeat Domain (ARD, …); test: native MS, titration Kd (constant peptide to protein ratio, decreasing protein concentration); Titration Kd; no apparent Kd given for Example 11
Method: as §1, §2

[7] = molecular target: T3, MCM2 Histone-binding Domain (HBD, residues 61-130) (human, UniProt P49736 61-130); test: GST pull-down of recombinant H3-H4 and MCM2 HBD with GST-TONSL ARD, stained gel (MCM2 HBD offered together with H3-H4)
T3 construct: In the crystal it is linked to TONSL ARD by the G4 linker; also called MCM2 HBD
T3 sequence (P49736 61-130): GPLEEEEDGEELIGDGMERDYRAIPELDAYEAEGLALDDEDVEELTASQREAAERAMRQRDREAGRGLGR

Binder | Kd [3] | % P1L1 [5] | binding result [7] | further results
B1 | – | – | – | Kd [1]: 1500 nM
B2 | – | – | – | binding result [2]: no binding (tested: molar ratio about 1.8)
B3 | 100 nM | 89.9% | – | Kd [4]: 310 nM
B4 | 1000 nM | 73.3% | – | Kd [4]: 960 nM
B5 | 400 nM | 81.4% | – | –
B6 | 2200 nM | 62.6% | – | Kd [4]: 1950 nM
B7 | – | – | – | Kd [6]: 77 nM
B8 | – | – | no binding | –
B9 | – | – | no binding | –
B10 | – | – | no binding | –
B11 | – | – | no binding | –
B12 | – | – | no binding | –
B13 | – | – | no binding | –
